The source of these data is patent US20220073598A1 (KYMAB, published 2022).

The target in experiment [1] is T1, recombinant human BMP6 (Peprotech 120-06) (human, UniProt P22004 397-513).
T1 construct: Biotinylated and immobilised for SPR; also called hBMP6; Bone Morphogenetic Protein 6
T1 sequence: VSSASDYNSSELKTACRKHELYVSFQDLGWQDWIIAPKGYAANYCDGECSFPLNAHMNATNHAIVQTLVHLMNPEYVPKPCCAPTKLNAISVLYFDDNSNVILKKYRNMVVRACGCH
The experiment in a line: HTRF competition: unlabelled antibody titrated (11 points, top 3 µM) against labelled CL-58838 (10 nM) for binding to labelled human BMP6 (32 nM). (Time-resolved FRET reads energy transfer from a long-lived donor to a nearby acceptor.)

Experiment [2] has as its target T1, recombinant human BMP6 (Peprotech …). The experiment in a line: Western blot after non-reducing SDS-PAGE. The procedure: (§1) 2 μg/lane purified human BMP6 (Peprotech) separated by SDS-PAGE and stained with Coomassie blue (A) under reducing (R) and non-reducing (NR) conditions and Western blots from such gels blotted onto membranes and then probed with purified human anti-BMP6 antibodies as labelled.
(§2) Since BMP6 is a disulphide linked dimer the reducing condition should create monomers on the gel instead of dimers on the non-reduced gel.
On the technique in general: Immunoblotting shows a protein as a band on a membrane.

Experiment [3] deals with T2, human BMP6 (Peprotech), reduced monomer on SDS-PAGE (human, UniProt P22004 397-513).
T2 construct: also called reduced BMP6 monomers; 18 kDa monomer
T2 sequence: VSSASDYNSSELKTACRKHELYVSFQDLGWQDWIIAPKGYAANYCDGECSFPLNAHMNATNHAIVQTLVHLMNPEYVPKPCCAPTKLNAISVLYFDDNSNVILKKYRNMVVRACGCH
The experiment is described as follows: Western blot after reducing SDS-PAGE. On the procedure: as §1, §2

B1: CL-58756 (antibody, human IgG4 S228P, kappa, V domains shown)
VH: QVQLVESGGGLVKPGGSLRLSCAASGFTFSDYYMSWIRQAPGKGLEWVSYISISGSTIYYADSVKGRFTISRDNAKNSLYLQMNSLRAEDTAVYYCARRSSGWYDYWGQGTLVTVSS
VL: EIVLTQSPGTLSLSPGERATLSCRASQSVSSNYLAWYQQKPGQAPRLLIYGASIRATGIPDRFSGSGSGTDFTLTISRLEPEDFAVYCCHQYGSSPPTFGQGTKVEIKR
B1: the binding result in experiment [1] is listed as “binds”.

B2: CL-58722 (antibody, human IgG4 S228P, kappa, V domains shown)
VH: QVQLVESGGGLVKPGGSLRLSCAASGFTFSDYYMSWIRQAPGKGLEWVSYISISGSTIYYADSVKGRFTISRDNAKNSLFLQMNSLRAEDTAVYYCARRSSGWYDYWGQGTLVTVSS
VL: EIVLTQSPGTLSLSPGERATLSCRASQSVSSNYLAWYQQKPGQAPRLLIYGASIRATGIPDRFSGSGSGTDFTLTISRLEPEDFAVYSCHQYGSSPPTFGQGTKVEIKR
Take B2: the binding result in experiment [1] is “binds”.

B3: CL-58713 (antibody, human IgG4 S228P, kappa, V domains shown)
VH: QVQLVESGGGLVKPGGSLRLSCAASGFTFSDYYMSWIRQAPGKGLEWVSYISISGITIYYADSVKGRFTISRDNARNSLYLQMNSLRAEDTAVYYCARRSSGWYDYWGQGTLVTVSS
VL: EIVLTQSPGTLSLSPGERATLSCRASQSVSYNYLAWYQQKPGQAPRLLIYGASIRATGIPDRFSGSGSGTDFTLTISRLEPEDFAVYCCHQYGSSPPTFGQGTKVEIKR
Take B3: the binding result in experiment [1] is listed as “binds”.

B4: Antibody B (antibody, human IgG1, lambda, V domains shown)
VH: QVQLVESGGGLVKPGGSLRLSCAASGFTFSSYVVHWVRQAPGKGLEWVGRIRLETHGYAAEYAASVKGRFTISRDDSKNTLYLQMNSLKTEDTAVYYCARVERSKSGFDNWGQGTLVTVSS
VL: QSVLTQPPSVSGAPGQRVTISCTGSSSNIGAGYSVHWYQQLPGTAPKLLIYGQSERPSGVPDRFSGSKSGTSASLAITGLQAEDEADYYCQSWDSSQTLVVFGGGTKLTVLG
notes: also called anti-BMP6 Antibody B
On to B4, for which the binding result in experiment [2] and in experiment [3] was “binds” in each case.
